B1: 25F7 (BMS-986016, Medarex/BMS), designated LAG-3 mAb A (antibody, V domains shown)
VH: QVQLQQWGAGLLKPSETLSLTCAVYGGSFSDYYWNWIRQPPGKGLEWIGEINHNGNTNSNPSLKSRVTLSLDTSKNQFSLKLRSVTAADTAVYYCAFGYSDYEYNWFDPWGQGTLVTVSS
VL: EIVLTQSPATLSLSPGERATLSCRASQSISSYLAWYQQKPGQAPRLLIYDASNRATGIPARFSGSGSGTDFTLTISSLEPEDFAVYYCQQRSNWPLTFGQGTNLEIK
notes: also called LAG-2 mAb A
B2: hLAG-3 mAb 6 (1.1) (antibody, V domains shown)
VH: QVQLVQSGAEVKKPGASVKVSCKASGYTFTDYNMDWVRQAPGQGLEWMGDINPDNGVTIYNQKFEGRVTMTTDTSTSTAYMELRSLRSDDTAVYYCAREADYFYFDYWGQGTTLTVSS
VL: DIQMTQSPSSLSASVGDRVTITCRASQDVSSVVAWYQQKPGKAPKLLIYSASYRYTGVPSRFSGSGSGTDFTLTISSLQPEDFATYYCQQHYSTPWTFGGGTKLEIK
notes: also called hLAG-3 6 (1.1); humanized LAG-3 mAb 6
B3: hLAG-3 mAb 1 (1.4), constant region not stated (antibody, V domains shown)
VH: QVQLVQSGAEVKKPGASVKVSCKASGYTFTNYGMNWVRQAPGQGLEWMGWINTYTGESTYADDFEGRFVFSMDTSASTAYLQISSLKAEDTAVYYCARESLYDYYSMDYWGQGTTVTVSS
VL: DIVMTQTPLSLSVTPGQPASISCKSSQSLLHSDAKTYLNWLLQKPGQPPERLIYLVSELDSGVPDRFSGSGSGTDFTLKISRVEAEDVGVYYCWQGTHFPYTFGGGTKVEIK
notes: also called hLAG-3 1 (1.4)

These binders were tested against T1, soluble LAG-3 fusion protein: extracelluar domain of cynomolgus monkey LAG-3 fused to murine IgG2a (cynomolgus monkey; murine) (assay: SPR (Biacore); cynomolgus LAG-3-murine IgG2a captured on Fab2 goat-anti mouse Fc, antibody in solution).
T1 construct: extracellular domain; also called cynomolgus LAG-3-murine IgG2a fusion protein
Method: In additional studies, the binding kinetics of the humanized antibodies hLAG-3 mAb 1 (1.4) and hLAG-3 mAb 6 (1.1), and a reference antibody LAG-3 mAb A to both human and cynomolgus monkey LAG-3 was investigated using Biacore analysis. In these studies, a soluble LAG-3 fusion protein (the extracelluar domain of human or cynomolgus monkey LAG-3 fused to murine IgG2a) was captured on a Fab2 goat-anti mouse Fc surface and incubated with the anti-LAG-3 antibody and the kinetics of binding was determined via Biacore analysis. The binding curves for LAG-3 mAb A, hLAG-3 mAb 1 (1.4) and hLAG-3 mAb 6 (1.1) binding to cynomolgus monkey LAG-3 are shown in FIGS. 7A-7C respectively, and the calculated ka, kd and KD are presented in Table 8. In a separate study, the binding of a bispecific Fc Region-containing diabody comprising hLAG-3 mAb 6 (1.1) to both human and cynomolgus monkey LAG-3 was investigated using Biacore analysis. In this study, the hLAG-3 mAb 6 (1.1) containing diabody was captured on a Fab2 goat-anti human Fc surface and incubated with soluble LAG-3 fusion protein (the extracelluar domain of human or cynomolgus monkey LAG-3 fused to a His tag) and the kinetics of binding was determined via Biacore analysis.

B1 was tested. Which Kd did it give?
The Kd was 458 nM.

With B2 as the binder, how does the Kd read?
Its Kd is 3.7 nM.

For B3, which Kd is on record?
Its Kd is < 0.53 nM.
